B1: Tip elongation aberrant protein Tea4 (Schizosaccharomyces pombe (strain ATCC 38366 / 972)), O60132 (parent)
chain: MLHMNSASSADSMEIMESHFDPTQQNDSTIIESRYSPEEYLEQSFEIQRIISGENSEPQTVASQEISDSQEEDTTLTSSQFEDCGTEYNEVVEDDEFRSEDEDDFMDEEEEYALYEAELSSSPSIHEEVIDCNFVHAIRGFEATVEGQVDATKGDMMILLDDSNSYWWLVKMCKNLAIGYLPAEYIETPSERLARLNKYKNSETSNSQQSVTLPPLDIVEKTLEAPSPNFRIKRVTFTCSSNSSDDEMDSENDYEAMVNRTVAENGLEIEFSDSSDSSLSAEYRSESEDHVTDSPAYVDLTELEGGFNQFNSTSFQSTSPLGLEIVETEINGSSTTADSKNSHSPYSKFSSAYPDAENSNISKINISIAGNKELYGNATQSDPSLYSTWIANKHKTASSATVDSPLRRSLSVDAMQSNASFSSYSSTSNTDKSLRPSSYSAVSESSNFTHDVSRDNKEISLNAPKSIIVSQSDSFDTSNVTQDAPNDVEKEPISGQMPNNLSVQSLKQLEVYPIRHSVSIEMPSEKLLSPRLYSSSTPSSPTKGFQKDDEEDSENRKQADKVELSPSSLLRQMSLPVDSSSQSDAQCTTSSVYITAERKAFSQSSIDLSTLSNHHVNNEINRRSFAGGFTSLADELSEMRELLHESPAPLECNEEMVIPTPELDASSAIPSSSISHDEDLLPRKNTEESTSSSSFSSLITSPASLQYDENPFKQSVVAELNNNSSSVPFVDSAHASDIHAYDNDHVSTKNKEFNRRLREFILDPDSLSGLYWSVKSAGVRASRRVSRNIEGESVSSDLDDIFANVLKGLSDEMASLLNTNR
partner: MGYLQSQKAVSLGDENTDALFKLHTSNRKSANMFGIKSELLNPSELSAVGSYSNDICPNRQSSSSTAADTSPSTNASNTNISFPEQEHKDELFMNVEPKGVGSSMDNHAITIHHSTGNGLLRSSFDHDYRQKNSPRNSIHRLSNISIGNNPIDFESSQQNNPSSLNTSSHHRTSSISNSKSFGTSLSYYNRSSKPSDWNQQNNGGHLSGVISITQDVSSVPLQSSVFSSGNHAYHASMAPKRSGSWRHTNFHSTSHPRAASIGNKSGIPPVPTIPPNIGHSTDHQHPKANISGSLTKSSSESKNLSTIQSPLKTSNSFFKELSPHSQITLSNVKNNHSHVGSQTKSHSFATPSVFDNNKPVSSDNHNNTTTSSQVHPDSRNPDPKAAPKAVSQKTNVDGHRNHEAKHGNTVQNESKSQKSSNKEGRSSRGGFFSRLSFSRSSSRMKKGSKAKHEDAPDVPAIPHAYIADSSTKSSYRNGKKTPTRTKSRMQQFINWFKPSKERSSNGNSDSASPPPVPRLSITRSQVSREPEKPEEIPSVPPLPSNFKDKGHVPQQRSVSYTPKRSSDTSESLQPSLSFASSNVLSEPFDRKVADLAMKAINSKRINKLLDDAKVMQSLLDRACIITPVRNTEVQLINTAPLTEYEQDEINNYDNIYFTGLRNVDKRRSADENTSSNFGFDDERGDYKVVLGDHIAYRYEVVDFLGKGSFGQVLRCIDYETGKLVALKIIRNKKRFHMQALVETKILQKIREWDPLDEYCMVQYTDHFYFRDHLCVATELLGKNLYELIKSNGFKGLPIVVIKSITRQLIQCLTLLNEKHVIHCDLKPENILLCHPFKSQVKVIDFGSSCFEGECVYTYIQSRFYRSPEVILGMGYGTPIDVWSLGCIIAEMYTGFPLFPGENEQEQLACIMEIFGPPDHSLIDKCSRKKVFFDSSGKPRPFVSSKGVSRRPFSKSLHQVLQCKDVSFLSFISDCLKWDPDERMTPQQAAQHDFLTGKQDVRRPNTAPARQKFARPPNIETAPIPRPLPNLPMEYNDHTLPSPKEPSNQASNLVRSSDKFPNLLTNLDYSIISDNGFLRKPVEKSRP
B2: Tip elongation aberrant protein Tea4 (Schizosaccharomyces pombe (strain ATCC 38366 / 972)), O60132 (parent)
chain: B1 chain

Tests used:
pom1_schpo pom1, Q09690 [1] = variants of: B1; conditions: with pom1_schpo pom1, Q09690
pom1_schpo pom1, Q09690 [2] = variants of: B1; conditions: with pom1_schpo pom1, Q09690; remark: listed apart in the source
pp11_schpo dis2, P13681 [3] = variants of: B2; conditions: with pp11_schpo dis2, P13681
pp11_schpo dis2, P13681 [4] = variants of: B2; conditions: with pp11_schpo dis2, P13681; remark: listed apart in the source

Sequence of pp11_schpo dis2, P13681 (P13681 whole entry): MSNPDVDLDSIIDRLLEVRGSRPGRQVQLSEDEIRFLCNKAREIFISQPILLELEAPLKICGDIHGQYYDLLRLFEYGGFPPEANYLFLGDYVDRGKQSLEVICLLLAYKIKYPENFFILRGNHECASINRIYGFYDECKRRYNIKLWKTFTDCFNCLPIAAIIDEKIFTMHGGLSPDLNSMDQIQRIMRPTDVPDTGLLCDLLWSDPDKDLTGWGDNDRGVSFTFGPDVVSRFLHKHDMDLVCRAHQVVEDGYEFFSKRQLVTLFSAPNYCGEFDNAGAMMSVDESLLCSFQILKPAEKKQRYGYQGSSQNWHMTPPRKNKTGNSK

Variant | effect of a mutation on the interaction (pom1_schpo pom1, Q09690 [1]) | effect of a mutation on the interaction (pom1_schpo pom1, Q09690 [2]) | effect of a mutation on the interaction (pp11_schpo dis2, P13681 [3]) | effect of a mutation on the interaction (pp11_schpo dis2, P13681 [4])
W167A;W168A | decreasing interaction | disrupting interaction | – | –
W167A;W168A | – | – | disrupting interaction | decreasing interaction
V235A;F237A | – | – | disrupting interaction | –

— IntAct's records for PubMed 21703453
